Reference: US20230087378A1 (UCB, published 2023)

T1: Human IL-17F (human, UniProt Q96PD4 31-163)
T1 sequence (looked up): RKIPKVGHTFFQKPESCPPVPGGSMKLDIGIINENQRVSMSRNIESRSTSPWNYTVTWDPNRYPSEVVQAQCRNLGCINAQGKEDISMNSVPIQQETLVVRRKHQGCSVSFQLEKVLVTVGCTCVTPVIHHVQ


Experiments:
Human IL-13 [1] = molecular target: T2, Human IL-13 (human, UniProt P35225 35-146); experiment: SPR, 100 nM IL-13Rα2 injected over IL-13 held by captured UCBXXXX (competitor)
Human IL-13 [2] = molecular target: T2, Human IL-13; experiment: SPR, antibody captured on anti-human F(ab')2, 25 nM IL-13 injected
Human IL-13 [3] = molecular target: T2, Human IL-13; experiment: SPR (Biacore T200), antibody captured on anti-human F(ab')2, human IL-13 as analyte, 25 C, 1:1 model
Method: (§1) A goat anti-human IgG, F(ab′)₂ fragment specific antibody (Jackson ImmunoResearch) was immobilised on a CM5 Sensor Chip via amine coupling chemistry to a level of approximately 5000 RU. […] At the end of each cycle the surface was regenerated at a flowrate of 10 μl/min using a 60 s injection of 50 mM HCl followed by a 30 s injection of 5 mM NaOH and a final 60 s injection of 50 mM HCl. […] Buffer blank injections were included to subtract instrument noise and drift.
(§2) Kinetic parameters were determined using a 1:1 binding model using Biacore T200 Evaluation software (version 3.0).

Human IL-17A = Human IL-17A (human, UniProt Q16552 24-155); experiment: SPR (Biacore T200), antibody captured on anti-human F(ab')2, human IL-17A as analyte, 25 C, 1:1 model
Method: as §1, §2

Human IL-17F = molecular target: T1, Human IL-17F; experiment: SPR (Biacore T200), antibody captured on anti-human F(ab')2, human IL-17F as analyte, 25 C, 1:1 model
Method: as §1, §2

IL-13Rα2 Binding (RU) (Human IL-13 [1]) | IL-13 Binding (RU) (Human IL-13 [2]) | Kd (Human IL-13 [3]) | koff (Human IL-13 [3]) | kon (Human IL-13 [3]) | Kd (Human IL-17A) | koff (Human IL-17A) | kon (Human IL-17A) | Kd (Human IL-17F) | koff (Human IL-17F) | kon (Human IL-17F) | Molecule
0.3 RU |  |  |  |  |  |  |  |  |  |  | IL-13Rα2 (from UniProt Q14627 27-343) (receptor)
 | 8.6 RU | 0.0275 nM | 5.69e-05 s⁻¹ | 2.05e+06 M⁻¹ s⁻¹ | 0.0844 nM | 0.00106 s⁻¹ | 1.27e+07 M⁻¹ s⁻¹ | 0.0744 nM | 0.000574 s⁻¹ | 7.71e+06 M⁻¹ s⁻¹ | BITS7201A (Genentech) (bispecific antibody)
 |  | 0.0563 nM | 3.66e-05 s⁻¹ | 650000 M⁻¹ s⁻¹ | 0.268 nM | 0.000128 s⁻¹ | 476000 M⁻¹ s⁻¹ |  |  |  | DVD2174 (Abbvie) (bispecific antibody) chain 1: EVQLVQSGAEVKKPGASVKVSCKASGYTFTTYGVSWVRQAPGQGLEWMGEIYPGNYNTYYNEKFRGRVTMTTDTSTSTAYMELRSLRSDDTAVYYCARWRTSYFSDYGYFDYWGQGTTVTVSSASTKGPEVQLVQSGAEVKKPGSSVKVSCKASGGSFGGYGIGWVRQAPGQGLEWMGGITPFFGFADYAQKFQGRVTITADESTTTAYMELSGLTSDDTAVYYCARDPNEFWNGYYSTHDFDSWGQGTTVTVSS chain 2: DVVMTQSPLSLPVTLGQPASISCRSSQSLVHSHGNTYLHWYQQRPGQSPRLLIYTVSNRFSGVPDRFSGSGSGTDFTLKISRVEAEDVGVYYCSQSTHVPYTFGGGTKVEIKRTVAAPSVFIFPPEIVLTQSPDFQSVTPKEKVTITCRASQDIGSELHWYQQKPDQPPKLLIKYASHSTSGVPSRFSGSGSGTDFTLTINGLEAEDAGTYYCHQTDSLPYTFGPGTKVDIKR
 |  | 0.0184 nM | 1.5e-05 s⁻¹ | 816000 M⁻¹ s⁻¹ | 0.137 nM | 7.68e-05 s⁻¹ | 559000 M⁻¹ s⁻¹ |  |  |  | DVD2166 (Abbvie) (bispecific antibody) chain 1: EVQLVQSGAEVKKPGASVKVSCKASGYTFTTYGVSWVRQAPGQGLEWMGEIYPGNYNTYYNEKFRGRVTMTTDTSTSTAYMELRSLRSDDTAVYYCARWRTSYFSDYGYFDYWGQGTTVTVSSASTKGPEVQLVQSGAEVKKPGSSVKVSCKASGYTFTDYEIHWVRQAPGQGLEWMGVNDPESGGTFYNQKFDGRVTLTADESTSTAYMELSSLRSEDTAVYYCTRYSKWDSFDGMDYWGQGTTVTVSS chain 2: DVVMTQSPLSLPVTLGQPASISCRSSQSLVHSHGNTYLHWYQQRPGQSPRLLIYTVSNRFSGVPDRFSGSGSGTDFTLKISRVEAEDVGVYYCSQSTHVPYTFGGGTKVEIKRTVAAPDIQMTQSPSSLSASVGDRVTITCRASSGIISYIDWFQQKPGKAPKRLIYATFDLASGVPSRFSGSGSGTDYTLTISSLQPEDFATYYCRQVGSYPETFGQGTKLEIKR
